Data from patent CN114409777A (SHAANXI HISINOVEC SCIENCE AND TECH LIMITED COMPANY, dated 2022).

Biological target: T1, 脆弱拟杆菌毒素BFT1全长蛋白(BFT1-sFL)，不含信号肽 (Bacteroides fragilis (产肠毒素脆弱拟杆菌, ETBF), UniProt P54355 26-405)
T1 construct: domain: 不含信号肽全长 (full length without signal peptide, pro domain kept); Recombinant protein from E. coli; This is not the processed catalytic domain alone: the pro domain is still present; also called BFT重组蛋白; BFT全长
T1 sequence: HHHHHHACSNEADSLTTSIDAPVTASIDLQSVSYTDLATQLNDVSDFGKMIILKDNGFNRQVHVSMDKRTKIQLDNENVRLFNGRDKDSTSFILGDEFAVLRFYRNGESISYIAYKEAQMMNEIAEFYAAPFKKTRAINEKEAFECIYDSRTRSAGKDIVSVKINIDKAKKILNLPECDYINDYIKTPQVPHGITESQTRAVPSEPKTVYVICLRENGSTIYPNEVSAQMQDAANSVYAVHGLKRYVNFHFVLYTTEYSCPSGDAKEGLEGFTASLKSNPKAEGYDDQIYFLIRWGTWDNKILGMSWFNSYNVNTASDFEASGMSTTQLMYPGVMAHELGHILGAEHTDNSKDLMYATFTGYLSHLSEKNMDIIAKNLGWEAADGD
Test: ITC (Microcal PEAQ-ITC), 20℃, nanobody about 20 μM, BFT1-sFL about 200 μM, 20mM Tris-HCl pH 8.0, 150mM NaCl, 5% glycerol

B1: 结直肠癌相关的抗脆弱拟杆菌毒素蛋白激活体的特异性纳米抗体Nb3.27 (VHH)
VHH: QVQLQESGGGLVQAGGSLRLSCTYSGQTFSAWAMGWFRQAPGKERETVATINWNGERTQYADAVKGRFTISRDNAKDTVYLEMNSLKPEDTAVYYCASMMGTYYSGSPKNWGQGTQVTVSS
notes: also called BFT-211纳米抗体; BFT1-sFL纳米抗体
  Kd: 15.3 nM
